Test results from publication PMC8533965.
Like-named read-outs stand apart in the source and are kept apart here. One block for each binder: values may come before it.

Tests used:
[1] = target: zebrafish Vasa, full length (amino acids 1–715), fused to the Venus N-terminal half (zfVasa-VN) (zebrafish); experiment: split reporter (BiFC, NanoBiT); BiFC with split Venus in living zebrafish embryos: Buc constructs with VC and zfVasa constructs with VN at their C-termini, mRNAs (200 ng/μL) co-injected at the one-cell stage, fluorescence imaged at 3 hpf by confocal microscopy; read-out percent of fluorescent embryos, three independent …
[2] = target: zfVasa RecA-CTD (amino acids 496–623) fused to the Venus N-terminal half (zebrafish); experiment: as above
[3] = target: zebrafish Vasa, full length (amino acids 1–715), fused to the Venus N-terminal half (zfVasa-VN) (zebrafish); experiment: as above; remark: listed apart in the source
[4] = target: zfVasa-HC (helicase core, amino acids 278–715) fused to the Venus N-terminal half (zebrafish); experiment: as above
[5] = target: zfVasa-BBM (amino acids 600–625) fused to the Venus N-terminal half (zebrafish); experiment: as above
[6] = target: zfVasa eRecA-CTD (extended sequence at the C-terminus of RecA-CTD, amino acids 624–715) fused to the Venus N-terminal half (zebrafish); experiment: as above
[7] = target: zebrafish Vasa, full length (amino acids 1–715), fused to the Venus N-terminal half (zfVasa-VN) (zebrafish); experiment: as above; remark: listed apart in the source
[8] = target: zfVasa S608A (full length) fused to the Venus N-terminal half (zebrafish); experiment: as above
[9] = target: zfVasa S607A (full length) fused to the Venus N-terminal half (zebrafish); experiment: as above
[10] = target: zfVasa (amino acids 227–670), recombinant, GST tag removed (zebrafish)

B1: Buc-CTD (amino acids 363–639) fused to the Venus C-terminal half (domain or fragment)
chain: YPQVTQERQSVLSPSIDELSSRDEMFSTDVEDLEVVPGHVYVGGGRLAEASDMPVRSRKELPSVDKTCSVCQKTCACCGSTLQDEVGMCKMAEHSHPERDEMSDQDCDYDLEAEVRSNCESPRVSKRKCCSRHALPSCGHHCAKHRHRKLLCEGQESCDLREQARVHPKGECCEEYGALAKADKRIQKGALCRPCIEQQWREGVVSDQENWASCGAKPRSWRQVTGPQDQGRTPLRRSTCKSIHQQRPRSEYNDYDETEFTYCQRGRGSMKKRGSRY
- percent of fluorescent embryos (BiFC) [1]: 77%

Binder: YPQVTQERQSVLSPSILELSSRDEMFSTDVEDLEVVPG (domain or fragment) [Buc-VBM (amino acids 363–400) D379L fused to the Venus C-terminal half]
- percent of fluorescent embryos (BiFC) [7]: 36%
- percent of fluorescent embryos (BiFC) [1]: 38%

Binder: YPQVTQERQSVLSPSIDELSSRDEMFSTDVEDLEVVPG (domain or fragment) [Buc amino acids 363–400 fused to the Venus C-terminal half]
- percent of fluorescent embryos (BiFC) [7]: 70%
- percent of fluorescent embryos (BiFC) [1]: 72%

Binder: SVLSPSIDELSSRDEMFSTDVED (domain or fragment) [Buc amino acids 372–394 (highly conserved sequence, Buc-VBM) fused to the Venus C-terminal half]
- percent of fluorescent embryos (BiFC) [1]: 66%

Second part, the binder after the results:

- percent of fluorescent embryos (BiFC) [2]: 64%
- percent of fluorescent embryos (BiFC) [3]: 77%
- percent of fluorescent embryos (BiFC) [4]: 70%
- percent of fluorescent embryos (BiFC) [5]: 69%
- percent of fluorescent embryos (BiFC) [6]: 14%
- percent of fluorescent embryos (BiFC) [7]: 79%
- percent of fluorescent embryos (BiFC) [8]: 27%
- percent of fluorescent embryos (BiFC) [9]: 38%
- percent of fluorescent embryos (BiFC) [1]: 82%
B2: Bucky ball, full length (amino acids 1–639), fused to the Venus C-terminal half (Buc-VC) (natural protein)
chain: MEGINNNSQPMGVGQPHHPVNHTRPFFYVQPPSQPYFMYQWPMNPYGHYGFPGPALHFGRPYMAPYQFMQYPGYVIPHAPMQPIDYRRINPHYPSVASYDLRVRHHFQNAGMHRETACSEVQTDPSDSVNKLIDKIESLKACELGSDKGPNNVVSSTPDVVQGEKLTRLNEDSNLEVATKECKEDPVTRPTTYSDSAYDAESSQGRLDECVFSDVLPLDSSSVHEEEEEEEKDVNEEDEPQTVADEICSQNEMSASTTSNVFCSGVQSIADPTECHDLEKLGDEQKQDIPSADAAAVIEPLISLSEDFDLPYQILRLPCNKTTTGLSLEREIDPLVYFDSPSTLLPPQNYLSSIGSAYSYSYYPQVTQERQSVLSPSIDELSSRDEMFSTDVEDLEVVPGHVYVGGGRLAEASDMPVRSRKELPSVDKTCSVCQKTCACCGSTLQDEVGMCKMAEHSHPERDEMSDQDCDYDLEAEVRSNCESPRVSKRKCCSRHALPSCGHHCAKHRHRKLLCEGQESCDLREQARVHPKGECCEEYGALAKADKRIQKGALCRPCIEQQWREGVVSDQENWASCGAKPRSWRQVTGPQDQGRTPLRRSTCKSIHQQRPRSEYNDYDETEFTYCQRGRGSMKKRGSRY

- ATPase activity of 5-µM zfVasa with 2.5-mM ATP (NADH-coupled assay, absorption at 340 nm, 25 °C) on addition of 100-µM Buc-VBM, without RNA [10]: 2 fold
Binder: YPQVTQERQSVLSPSIDELSSRDEMFSTDVEDLEVVPG [Buc-VBM (amino acids 363–400), recombinant, GST tag removed]

- percent of fluorescent embryos (BiFC) [7]: 63%
Binder: YPQVTQERQSVLSPSIDELSSGDEMFSTDVEDLEVVPG (domain or fragment) [Buc-VBM (amino acids 363–400) R384G (non-conserved control) fused to the Venus C-terminal half]

- percent of fluorescent embryos (BiFC) [7]: 48%
Binder: YPQVTQERQSVLSPSIDELSSRDLMFSTDVEDLEVVPG (domain or fragment) [Buc-VBM (amino acids 363–400) E386L fused to the Venus C-terminal half]

- percent of fluorescent embryos (BiFC) [7]: 43%
Binder: YPQVTQERQSVLSPSIDELSSRDEMFATDVEDLEVVPG (domain or fragment) [Buc-VBM (amino acids 363–400) S389A fused to the Venus C-terminal half]
